Test results from article PMC12153270.

Tested on: MBP-ComGC (soluble globular head) (Streptococcus sanguinis 2908?)
Test: EMSA
Settings: 2.5 mM Mg2+; 25 mM Tris-HCl pH 8, 2.5 mM MgCl2, 50 mM NaCl, room temperature 30 min, 120 ng pUC19 in 10 uL; 0.8% agarose in TAE

pUC19 plasmid
binding: > 10 µM
